± gives the uncertainty stated by the source.

This data set is described as follows: amyloid nucleation score (Sup35N fusion, yeast selection) (log enrichment); library NNK2; higher = more nucleation; inactive = no reads after selection. A digest of the protocol: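 Growth for 7 days at 30°C on medium lacking adenine and uracil followed a 24-hour induction with 100 μM copper sulfate of psi-negative yeast expressing peptides of 20 random codons fused to Sup35N. Input and output plasmid inserts were sequenced with Illumina, and sequences with under 100 input reads were excluded. Nucleation score is the DiMSum log enrichment of output over input reads, centred on the mode score of non-aggregating sequences.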
For QVKMSSYFVLFFAGPPHVSI, the amyloid nucleation score is -1.13 ± 0.76.

Regarding LISTELGPTSFYLHKSLSSR, the amyloid nucleation score was -1.02 ± 0.62.

Take EKWLGLFKTYAESFDSCCLG: the amyloid nucleation score is -0.581 ± 0.29.

Consider MWTLLVKSTKGAHGQYSVMH, for which the amyloid nucleation score is 0.397 ± 0.22.

Turning to NHMGIVRVVLMFGSYITLI, the amyloid nucleation score is -0.174 ± 0.45.

In the case of SNHLIVMISVFYFKSVRI, the amyloid nucleation score result was “inactive”.

With PKSHFSRFGYYKVFQRSGRS, the amyloid nucleation score is -0.92 ± 1.1.

Regarding KGSSSWTLPVYSLELSLV, the amyloid nucleation score is -0.731 ± 0.79.

Consider IYFESPPTRWGGYVADNCEY, for which the amyloid nucleation score is -1.36 ± 0.76.

RLNHGVSRSYDPPRRWAGSR showed an amyloid nucleation score of 0.07 ± 0.61.

With GELGQCVIKSVMSMLHKRAN, the amyloid nucleation score was -0.347 ± 0.79.

Turning to FCNFGFIRNRSDDIGVSRGV, the amyloid nucleation score is -1.07 ± 0.47.

Regarding YFLLVVCGWHGFIIESLLRF, the amyloid nucleation score entry was “inactive”.

As to TSCFLLILCLQMKCTSFTSS, the amyloid nucleation score came out at 2.18 ± 0.11.

For SGEARQH, the amyloid nucleation score is -0.691 ± 0.49.

With SYCILVLNL, the amyloid nucleation score was 6.445 ± 0.045.

In the case of YVATKYMRLNTCNLFWGGLT, the amyloid nucleation score came out at 6.368 ± 0.05.

Take SLSQMRLSVLSNKDHSIEL: the amyloid nucleation score came out at 7.964 ± 0.056.

Turning to MLRCQFTSTGFGNRLATFSD, the amyloid nucleation score came out at 3.02 ± 0.15.

On to GIHRSMTFLTNQNRLIWSHG, for which the amyloid nucleation score came out at 1.17 ± 0.4.

TYVAFGGWLLEMPMLPTWSQ displayed an amyloid nucleation score of 0.332 ± 0.37.

Consider LTVLCPANLSYRIVYVLLYK, for which the amyloid nucleation score was -0.865 ± 0.41.

For the substance YSGFI, the amyloid nucleation score result is “inactive”.

Regarding LLTMVHTSSIRKESGF, the amyloid nucleation score is -0.118 ± 0.5.

On to LRTIHYPC, for which the amyloid nucleation score entry is “inactive”.

VADMVVRT displayed an amyloid nucleation score of 0.806 ± 0.32.

TLNTNMRSLLRI: the amyloid nucleation score result was “inactive”.

Regarding LGIASLQNGSGIGAWQAY, the amyloid nucleation score was 0.04 ± 0.76.

Turning to GVNILTLWHWIYFNTTVQNN, the amyloid nucleation score was -1.19 ± 0.38.

GTRYILVKGTMGYDLCYFLG displayed an amyloid nucleation score of 2.69 ± 0.13.

Turning to DCLIRIVQSTGVYVRWQGRA, the amyloid nucleation score was determined as 4.35 ± 0.086.

For the substance FIFVLI, the amyloid nucleation score came to 3.08 ± 0.11.

On to SLNPTRSWMRFNINKAHFLL, for which the amyloid nucleation score is -0.204 ± 0.48.

Take PLDGEIRREHVLAYEE: the amyloid nucleation score was -0.454 ± 0.48.

For the substance FIMSSVCMIRCNITCSHQPS, the amyloid nucleation score is 8.21 ± 0.035.

Consider AGLLYVSRLNWSVSQRNGVG, for which the amyloid nucleation score was determined as 0.131 ± 1.

In turn, YGVDLSRRMV returned an amyloid nucleation score of 0.043 ± 0.46.

RCHRNFVSWVEDLGRRSIGV showed an amyloid nucleation score of 4.53 ± 0.051.

For the substance PGTFFSLSKWWFIDGVTEPG, the amyloid nucleation score worked out at 0.178 ± 0.77.

Regarding TNSMNGFFFR, the amyloid nucleation score was -1.81 ± 1.

Turning to FCRLLPSLCTTNLK, the amyloid nucleation score is -0.663 ± 0.76.

For the substance RMTEA, the amyloid nucleation score was found to be 2.32 ± 0.21.

Substance LSRSGNAPDMKKLLNFGQTR showed an amyloid nucleation score of 3.71 ± 0.042.

As for YMVLSHVVQPFNHLGISWPC, the amyloid nucleation score entry is “inactive”.

In the case of FWVRNVDTLWLSPRYVTWSG, the amyloid nucleation score was -0.323 ± 0.33.

FHTLRVE displayed an amyloid nucleation score of 1.46 ± 0.3.

For QRPRGLNLRYTDTRWIFYGP, the amyloid nucleation score stood at 4.37 ± 0.045.

As for HESKYNVQVFN, the amyloid nucleation score is -0.276 ± 0.76.

For the substance WSRSLKDGALESYSSVRLLC, the amyloid nucleation score worked out at 0.1 ± 0.28.

With YYMKFEAILKDQWSTVYN, the amyloid nucleation score entry is “inactive”.

Take MYREGSTVGLYMFPYCKDQS: the amyloid nucleation score amounted to 0.237 ± 0.4.

As to VAHKSPFIAHFTWVILAYGM, the amyloid nucleation score stood at 0.211 ± 0.61.

For the substance ELLGSLCRNRVGTWTICNMS, the amyloid nucleation score was 0.52 ± 0.34.

Turning to SAYDSTCRFISGFL, the amyloid nucleation score is -1.68 ± 1.

As to RDNCVWYTGHSLKRMRIAKA, the amyloid nucleation score entry is “inactive”.

Substance RANFSGTKLLVNTECLWLSV displayed an amyloid nucleation score of 2.35 ± 0.17.

In turn, RKEIRGLTMTRPIVDPMRTK gave an amyloid nucleation score of 0.932 ± 0.81.

As for ITKPLVALKNGYMVL, the amyloid nucleation score was -0.177 ± 0.56.

For VYRYFNLQVISFWMMARHTM, the amyloid nucleation score was -1.32 ± 1.1.

Take IVILDRFSPCSRTNE: the amyloid nucleation score is 0.45 ± 0.8.

ANVWRSLFAFTIANVTIPR: the amyloid nucleation score was 5.714 ± 0.045.

The substance IDYQKMLVSDCGD showed an amyloid nucleation score of 0.363 ± 0.46.

WALTHVSLYRFGER had an amyloid nucleation score of 4.32 ± 0.093.

With RLRNLFSYWLSEERSGPDGW, the amyloid nucleation score was 2.03 ± 0.14.

Consider MVTYVMLSIPGFSSKYFFEG, for which the amyloid nucleation score is -1.42 ± 1.1.

For the substance LHQGSVCWDWLPVYEVTVLG, the amyloid nucleation score is 0.049 ± 0.44.

Regarding NSSYTVGHGPDT, the amyloid nucleation score entry was “inactive”.

On to VVSHLGWTWGFKSMLGIRRS, for which the amyloid nucleation score was -0.759 ± 0.29.

For the substance GSLNTLSIFDDE, the amyloid nucleation score is -0.684 ± 0.64.

Consider GHIFSRHVKGQLHGWEEDGP, for which the amyloid nucleation score turned out to be 0.058 ± 1.

With YGLIFNLASFMLRGPRTSFS, the amyloid nucleation score is -2.15 ± 0.64.

As for SNLEHSGWRTRMRWGL, the amyloid nucleation score stood at 5.5 ± 0.079.

The substance QCVKLNTNVLCTVSDYNARG had an amyloid nucleation score of 1.2 ± 0.11.

Substance TMQIFMKSMINSGICSTYHL displayed an amyloid nucleation score of 3.47 ± 0.08.

As to EWPMPWMFHRCSG, the amyloid nucleation score was -0.138 ± 0.37.

For the substance SYECPMHTLPVHSRSAYRST, the amyloid nucleation score is 0.878 ± 0.27.

YFFTLKV: the amyloid nucleation score stood at 0.497 ± 0.46.

Turning to DGSNIFLLV, the amyloid nucleation score was -0.482 ± 0.56.

In the case of IVVFSGVQVRGHCWNVKGAN, the amyloid nucleation score came to 7.64 ± 0.069.

In the case of TQRVGGIRW, the amyloid nucleation score came to 0.105 ± 0.24.

TYTVRFENSRRTGDN: the amyloid nucleation score is -0.13 ± 0.41.

LSFVVL: the amyloid nucleation score is -0.67 ± 1.1.

Regarding YYKFTVCWMYYLYQKSRTLL, the amyloid nucleation score is -1.15 ± 0.78.

Consider NSFYRCYVRCIVSVRFLCCH, for which the amyloid nucleation score is 5.008 ± 0.035.

In turn, RRVSAIYYRSLCCLAHYFRL came in with an amyloid nucleation score of 0.219 ± 1.

On to KVLCWLRVRYLKGLGQGSAC, for which the amyloid nucleation score was determined as 0.358 ± 0.31.

Consider VQILSHFSADCKDDSVDQES, for which the amyloid nucleation score was -1.06 ± 1.1.

With SNGINN, the amyloid nucleation score result was “inactive”.

Regarding MVSMFNGYAVLHCPLCIITR, the amyloid nucleation score is 7.11 ± 0.047.

For LGIVHGNNY, the amyloid nucleation score is -1.14 ± 0.76.

For TVCWSLFDDCSFYFRCNAFE, the amyloid nucleation score was determined as 8.42 ± 0.042.

In turn, GSPGIETGIAAEEWNGGW showed an amyloid nucleation score of 0.865 ± 0.5.

In turn, NGLSRLEVTNH had an amyloid nucleation score of 0.052 ± 0.49.

For the substance TNWVDWESYISCGGNGFGGC, the amyloid nucleation score was -0.92 ± 0.39.

Regarding NTSHGFQSNPRGAYERILCV, the amyloid nucleation score is -0.961 ± 0.63.

On to KLYVAIMNSWILGKVGSYNG, for which the amyloid nucleation score came to 6.214 ± 0.034.

For the substance SLSWQNPCLMFMDNMADMIS, the amyloid nucleation score is -0.006 ± 0.54.

Consider FGMSCWFLFFASQFSVTNNC, for which the amyloid nucleation score was -1.51 ± 0.76.

As for RTISMYEELVTELRNSVM, the amyloid nucleation score was -0.283 ± 0.33.

As to ACNVILCVTNPTHNVIV, the amyloid nucleation score worked out at 9.254 ± 0.036.

RGALVICCNTLSCGRGRLGD registered an amyloid nucleation score of 10.22 ± 0.074.

Consider SSAFFSFNWADKWCMLMCLV, for which the amyloid nucleation score was -1.41 ± 1.1.
